Data from patent US20240109937A1, “BINDING PEPTIDES AND USES THEREOF” (The Johns Hopkins University, priority 2021, published 2024).

Columns and labels:
[1] = target: T1, Peptidylprolyl isomerase A (PPIA), also known as cyclophilin A (CypA), P62937; experiment: printed as 'Disrupts the complex AIF/Cyclophilin with a KD'; method not stated
[2] = target: T1, Peptidylprolyl isomerase A (PPIA), also …; experiment: method not stated; told in the description of FIG. 20

T1 sequence (P62937 whole entry): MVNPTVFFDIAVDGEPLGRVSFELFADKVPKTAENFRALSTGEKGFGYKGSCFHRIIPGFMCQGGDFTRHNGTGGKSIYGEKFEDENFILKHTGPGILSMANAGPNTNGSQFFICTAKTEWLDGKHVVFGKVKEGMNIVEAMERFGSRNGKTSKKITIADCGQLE

B1: TAT-AIF (370-394) (peptide)
peptide: GRKKRRQRRRAQSVGVSSGKLLIKLKDGRKVETDHI
modifications: not checked
**Q.** How did the Kd [1] turn out when B1 was run?
**A.** 5 µM

**Q.** What about the Kd [2] of the same binder?
**A.** 12 µM
